How the values were obtained:
HeLa Kyoto [1] = test: thermal stability score vs G1/S (z-score of summed log2 fold changes over temperatures); higher = more thermally stable than in G1/S
HeLa Kyoto [2] = test: solubility change mitosis vs G1/S (difference of NP-40 vs SDS log2 ratios) (log2 ratio difference); higher = more soluble in mitosis
HeLa Kyoto [3] = test: melting temperature (median over replicates), in situ; higher = more thermally stable
HeLa Kyoto [4] = test: solubility in G1/S (NP-40 vs SDS abundance) (log2 ratio); higher = more soluble; conditions: cell cycle stage: G1/S
[5] = cell cycle stage: early G1 (4.5 h after nocodazole release)
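Wherever melting temperature (median over replicates), in situ is given: HeLa Kyoto cells synchronized by double thymidine or nocodazole block, proteins quantified by TMT10plex mass spectrometry, three independent biological replicates.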
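Wherever solubility change mitosis vs G1/S (difference of NP-40 vs SDS log2 ratios) is given: synchronized HeLa Kyoto cells (double thymidine block for G1/S, nocodazole release for mitosis), protein amounts in NP-40 versus SDS lysates quantified by mass spectrometry, three biological replicates.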
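Wherever solubility in G1/S (NP-40 vs SDS abundance) is given: HeLa Kyoto cells arrested at G1/S by double thymidine block, proteins quantified by TMT10plex mass spectrometry in mild NP-40 versus SDS extracts, three biological replicates.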
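Wherever thermal stability score vs G1/S (z-score of summed log2 fold changes over temperatures) is given: synchronized HeLa Kyoto cells, proteins quantified by TMT10plex mass spectrometry, three biological replicates, mitosis taken 0.5 h after nocodazole release, G1/S directly after double thymidine block.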

Row | Sequence | thermal stability score (HeLa Kyoto [1]; [5]) | thermal stability score (HeLa Kyoto [1]; cell cycle stage: mitosis) | solubility change mitosis (log2) (HeLa Kyoto [2]) | melting temperature (HeLa Kyoto [3]; cell cycle stage: G1/S) [°C] | melting temperature (HeLa Kyoto [3]; cell cycle stage: mitosis) [°C] | solubility in G1/S (log2) (HeLa Kyoto [4])
1 | MDGEEQQPPHEANVEPVVPSEASEPVPRVLSGDPQNLSDVDAFNLLLEMKLKRRRQRPNLPRTVTQLVAEDGSRVYVVGTAHFSDDSKRDVVKTIREVQPDVVVVELCQYRVSMLKMDESTLLREAQELSLEKLQQAVRQNGLMSGLMQMLLLKVSAHITEQLGMAPGGEFREAFKEASKVPFCKFHLGDRPIPVTFKRAIAALSFWQKVRLAWGLCFLSDPISKDDVERCKQKDLLEQMMAEMIGEFPDLHRTIVSERDVYLTYMLRQAARRLELPRASDAEPRKCVPSVVVGVVGMGHVPGIEKNWSTDLNIQEIMTVPPPSVSGRVSRLAVKAAFFGLLGYSLYWMGRRTASLVLSLPAAQYCLQRVTEARHK [TRABD] | 0.0844 | 0.106 | 0.0374 | 52.2 | 50.2 | 0.184
2 | MPPKKQAQAGGSKKAEQKKKEKIIEDKTFGLKNKKGAKQQKFIKAVTHQVKFGQQNPRQVAQSEAEKKLKKDDKKKELQELNELFKPVVAAQKISKGADPKSVVCAFFKQGQCTKGDKCKFSHDLTLERKCEKRSVYIDARDEELEKDTMDNWDEKKLEEVVNKKHGEAEKKKPKTQIVCKHFLEAIENNKYGWFWVCPGGGDICMYRHALPPGFVLKKDKKKEEKEDEISLEDLIERERSALGPNVTKITLESFLAWKKRKRQEKIDKLEQDMERRKADFKAGKALVISGREVFEFRPELVNDDDEEADDTRYTQGTGGDEVDDSVSVNDIDLSLYIPRDVDETGITVASLERFSTYTSDKDENKLSEASGGRAENGERSDLEEDNEREGTENGAIDAVPVDENLFTGEDLDELEEELNTLDLEE [ZC3H15] | 0.581 | -2.59 | -0.0422 | 54.1 | 53.6 | -0.131
3 | MSAFDTNPFADPVDVNPFQDPSVTQLTNAPQGGLAEFNPFSETNAATTVPVTQLPGSSQPAVLQPSVEPTQPTPQAVVSAAQAGLLRQQEELDRKAAELERKERELQNTVANLHVRQNNWPPLPSWCPVKPCFYQDFSTEIPADYQRICKMLYYLWMLHSVTLFLNLLACLAWFSGNSSKGVDFGLSILWFLIFTPCAFLCWYRPIYKAFRSDNSFSFFVFFFVFFCQIGIYIIQLVGIPGLGDSGWIAALSTLDNHSLAISVIMMVVAGFFTLCAVLSVFLLQRVHSLYRRTGASFQQAQEEFSQGIFSSRTFHRAASSAAQGAFQGN [SCAMP2] | -1.72 | -3.07 | -0.103 | 58.4 | 56.6 | 0.177
4 | MALFAVFQTTFFLTLLSLRTYQSEVLAERLPLTPVSLKVSTNSTRQSLHLQWTVHNLPYHQELKMVFQIQISRIETSNVIWVGNYSTTVKWNQVLHWSWESELPLECATHFVRIKSLVDDAKFPEPNFWSNWSSWEEVSVQDSTGQDILFVFPKDKLVEEGTNVTICYVSRNIQNNVSCYLEGKQIHGEQLDPHVTAFNLNSVPFIRNKGTNIYCEASQGNVSEGMKGIVLFVSKVLEEPKDFSCETEDFKTLHCTWDPGTDTALGWSKQPSQSYTLFESFSGEKKLCTHKNWCNWQITQDSQETYNFTLIAENYLRKRSVNILFNLTHRVYLMNPFSVNFENVNATNAIMTWKVHSIRNNFTYLCQIELHGEGKMMQYNVSIKVNGEYFLSELEPATEYMARVRCADASHFWKWSEWSGQNFTTLEAAPSEAPDVWRIVSLEPGNHTVTLFWKPLSKLHANGKILFYNVVVENLDKPSSSELHSIPAPANSTKLILDRCSYQICVIANNSVGASPASVIVISADPENKEVEEERIAGTEGGFSLSWKPQPGDVIGYVVDWCDHTQDVLGDFQWKNVGPNTTSTVISTDAFRPGVRYDFRIYGLSTKRIACLLEKKTGYSQELAPSDNPHVLVDTLTSHSFTLSWKDYSTESQPGFIQGYHVYLKSKARQCHPRFEKAVLSDGSECCKYKIDNPEEKALIVDNLKPESFYEFFITPFTSAGEGPSATFTKVTTPDEHSSMLIHILLPMVFCVLLIMVMCYLKSQWIKETCYPDIPDPYKSSILSLIKFKENPHLIIMNVSDCIPDAIEVVSKPEGTKIQFLGTRKSLTETELTKPNYLYLLPTEKNHSGPGPCICFENLTYNQAASDSGSCGHVPVSPKAPSMLGLMTSPENVLKALEKNYMNSLGEIPAGETSLNYVSQLASPMFGDKDSLPTNPVEAPHCSEYKMQMAVSLRLALPPPTENSSLSSITLLDPGEHYC [OSMR] | 0.598 | -0.083 | -0.0968 | 50.9 | 51.1 | -0.0468
5 | MCDIEEATNQLLDVNLHENQKSVQVTESDLGSESELLVTIGATVPTGFEQTAADEVREKLGSSCKISRDRGKIYFVISVESLAQVHCLRSVDNLFVVVQEFQDYQFKQTKEEVLKDFEDLAGKLPWSNPLKVWKINASFKKKKAKRKKINQNSSKEKINNGQEVKIDQRNVKKEFTSHALDSHILDYYENPAIKEDVSTLIGDDLASCKDETDESSKEETEPQVLKFRVTCNRAGEKHCFTSNEAARDFGGAVQDYFKWKADMTNFDVEVLLNIHDNEVIVGIALTEESLHRRNITHFGPTTLRSTLAYGMLRLCDPLPYDIIVDPMCGTGAIPIEGATEWSDCFHIAGDNNPLAVNRAANNIASLLTKSQIKEGKPSWGLPIDAVQWDICNLPLRTGSVDIIVTDLPFGKRMGSKKRNWNLYPACLREMSRVCTPTTGRAVLLTQDTKCFTKALSGMRHVWRKVDTVWVNVGGLRAAVYVLIRTPQAFVHPSEQDGERGTLWQCKE [THUMPD3] | -1 | -2.07 | -0.147 | 52.9 | 53 | 0.109
6 | MSTGGDFGNPLRKFKLVFLGEQSVGKTSLITRFMYDSFDNTYQATIGIDFLSKTMYLEDRTVRLQLWDTAGQERFRSLIPSYIRDSTVAVVVYDITNVNSFQQTTKWIDDVRTERGSDVIIMLVGNKTDLADKRQVSIEEGERKAKELNVMFIETSAKAGYNVKQLFRRVAAALPGMESTQDRSREDMIDIKLEKPQEQPVSEGGCSC [RAB6A] | -2.97 | -6.05 | -0.0808 | 56.5 | 57.1 | -0.0491
7 | MWGSDRLAGAGGGGAAVTVAFTNARDCFLHLPRRLVAQLHLLQNQAIEVVWSHQPAFLSWVEGRHFSDQGENVAEINRQVGQKLGLSNGGQVFLKPCSHVVSCQQVEVEPLSADDWEILELHAVSLEQHLLDQIRIVFPKAIFPVWVDQQTYIFIQIVALIPAASYGRLETDTKLLIQPKTRRAKENTFSKADAEYKKLHSYGRDQKGMMKELQTKQLQSNTVGITESNENESEIPVDSSSVASLWTMIGSIFSFQSEKKQETSWGLTEINAFKNMQSKVVPLDNIFRVCKSQPPSIYNASATSVFHKHCAIHVFPWDQEYFDVEPSFTVTYGKLVKLLSPKQQQSKTKQNVLSPEKEKQMSEPLDQKKIRSDHNEEDEKACVLQVVWNGLEELNNAIKYTKNVEVLHLGKVWIPDDLRKRLNIEMHAVVRITPVEVTPKIPRSLKLQPRENLPKDISEEDIKTVFYSWLQQSTTTMLPLVISEEEFIKLETKDGLKEFSLSIVHSWEKEKDKNIFLLSPNLLQKTTIQVLLDPMVKEENSEEIDFILPFLKLSSLGGVNSLGVSSLEHITHSLLGRPLSRQLMSLVAGLRNGALLLTGGKGSGKSTLAKAICKEAFDKLDAHVERVDCKALRGKRLENIQKTLEVAFSEAVWMQPSVVLLDDLDLIAGLPAVPEHEHSPDAVQSQRLAHALNDMIKEFISMGSLVALIATSQSQQSLHPLLVSAQGVHIFQCVQHIQPPNQEQRCEILCNVIKNKLDCDINKFTDLDLQHVAKETGGFVARDFTVLVDRAIHSRLSRQSISTREKLVLTTLDFQKALRGFLPASLRSVNLHKPRDLGWDKIGGLHEVRQILMDTIQLPAKYPELFANLPIRQRTGILLYGPPGTGKTLLAGVIARESRMNFISVKGPELLSKYIGASEQAVRDIFIRAQAAKPCILFFDEFESIAPRRGHDNTGVTDRVVNQLLTQLDGVEGLQGVYVLAATSRPDLIDPALLRPGRLDKCVYCPPPDQVSRLEILNVLSDSLPLADDVDLQHVASVTDSFTGADLKALLYNAQLEALHGMLLSSGLQDGSSSSDSDLSLSSMVFLNHSSGSDDSAGDGECGLDQSLVSLEMSEILPDESKFNMYRLYFGSSYESELGNGTSSDLSSQCLSAPSSMTQDLPGVPGKDQLFSQPPVLRTASQEGCQELTQEQRDQLRADISIIKGRYRSQSGEDESMNQPGPIKTRLAISQSHLMTALGHTRPSISEDDWKNFAELYESFQNPKRRKNQSGTMFRPGQKVTLA [PEX1] | -0.296 | -0.803 | -0.0568 | 51.2 | 50.6 | -0.083
8 | MSSASGLRRGHPAGGEENMTETDAFYKREMFDPAEKYKMDHRRRGIALIFNHERFFWHLTLPERRGTCADRDNLTRRFSDLGFEVKCFNDLKAEELLLKIHEVSTVSHADADCFVCVFLSHGEGNHIYAYDAKIEIQTLTGLFKGDKCHSLVGKPKIFIIQACRGNQHDVPVIPLDVVDNQTEKLDTNITEVDAASVYTLPAGADFLMCYSVAEGYYSHRETVNGSWYIQDLCEMLGKYGSSLEFTELLTLVNRKVSQRRVDFCKDPSAIGKKQVPCFASMLTKKLHFFPKSN [CASP6] | -0.607 | -1.03 | -0.176 | 54.4 | 56.6 | -0.374
9 | MESYHKPDQQKLQALKDTANRLRISSIQATTAAGSGHPTSCCSAAEIMAVLFFHTMRYKSQDPRNPHNDRFVLSKGHAAPILYAVWAEAGFLAEAELLNLRKISSDLDGHPVPKQAFTDVATGSLGQGLGAACGMAYTGKYFDKASYRVYCLLGDGELSEGSVWEAMAFASIYKLDNLVAILDINRLGQSDPAPLQHQMDIYQKRCEAFGWHAIIVDGHSVEELCKAFGQAKHQPTAIIAKTFKGRGITGVEDKESWHGKPLPKNMAEQIIQEIYSQIQSKKKILATPPQEDAPSVDIANIRMPSLPSYKVGDKIATRKAYGQALAKLGHASDRIIALDGDTKNSTFSEIFKKEHPDRFIECYIAEQNMVSIAVGCATRNRTVPFCSTFAAFFTRAFDQIRMAAISESNINLCGSHCGVSIGEDGPSQMALEDLAMFRSVPTSTVFYPSDGVATEKAVELAANTKGICFIRTSRPENAIIYNNNEDFQVGQAKVVLKSKDDQVTVIGAGVTLHEALAAAELLKKEKINIRVLDPFTIKPLDRKLILDSARATKGRILTVEDHYYEGGIGEAVSSAVVGEPGITVTHLAVNRVPRSGKPAELLKMFGIDRDAIAQAVRGLITKA [TKT] | -3.36 | -2.81 | -0.0914 | 61.8 | 60.1 | 0.148
10 | MARFALTVVRHGETRFNKEKIIQGQGVDEPLSETGFKQAAAAGIFLNNVKFTHAFSSDLMRTKQTMHGILERSKFCKDMTVKYDSRLRERKYGVVEGKALSELRAMAKAAREECPVFTPPGGETLDQVKMRGIDFFEFLCQLILKEADQKEQFSQGSPSNCLETSLAEIFPLGKNHSSKVNSDSGIPGLAASVLVVSHGAYMRSLFDYFLTDLKCSLPATLSRSELMSVTPNTGMSLFIINFEEGREVKPTVQCICMNLQDHLNGLTETR [TIGAR] | -0.092 | 0.286 | -0.0797 | 50.2 | 50.3 | 0.348

Reference: the supplement of paper PMC5998384
